According to patent US20230331823A1 (HENRY M JACKSON FOUNDATION FOR THE ADVANCEMENT OF MILITARY …, published 2023):
Where two headings read alike, the source gives them in different places.

What was measured:
[1] = target: SARS-CoV-2 RBD (pCoV08, RBD-His6) (SARS-CoV-2 (Wuhan-Hu-1), UniProt P0DTC2 331-527); assay: Table 1, column Specificity
[2] = target: T1, SARS-CoV-2 WA-1 Spike on pseudovirions (SARS-CoV-2, UniProt P0DTC2 14-1255); assay: cell-based or functional assay
[3] = target: T1, SARS-CoV-2 WA-1 Spike on pseudovirions; assay: cell-based or functional assay; remark: listed apart in the source
[4] = target: T2, SARS-CoV-2 NTD WA-1 (SARS-CoV-2, UniProt P0DTC2 14-303); assay: BLI, ShAb-Fc on AHC probe, NTD analyte
T2 construct: domain: NTD

Binder	binding result [1]	pseudovirus neutralization IC50 [2] [mg/L]	pseudovirus neutralization IC80 [2] [mg/L]	pseudovirus neutralization IC50 [3] [mg/L]	Kd [4] [µM]	koff [4] [s⁻¹]	kon [4] [M⁻¹ s⁻¹]
ShAb31 (MoB5-1D4) single domain VNAR (VNAR) VNAR: ARVDQTPQTITKETGESLTINCVLRDSNCGVASTDWYRKKSGSTNEESISKGGRYVETVNSRSKSFSLRINDLTVEDSGTYRCNAWDRWETRQLNCDYDVYGGGTVVTVN	binds	–	–	–	–	–	–
ShAb02-Foldon (ShAb02 VNAR-KESlinker-Foldon-3c-His8-Strep) (VNAR) VNAR: ARVDQTPQTITKETGESLTINCVLRDSNCALASTDWYRKKSGSTNEESISKGGRYVETVNSGSKSFSLRINDLTVEDSGTYRCNAWDSWETRQLKCDYDVYGGGTVVTVNK	–	0.289	1.77	< 0.02	–	–	–
ShAb01H06K (ShAb01Hole-06Knob) (bispecific antibody, V domains shown) V domain 1: ARVDQTPRSVTKETGESLTINCVLRDSNCALSSTHWYRKKSGSTNEERILQGRRYVETVNSGSKSFSLRINDLRVEDSGTYRCKVYWGNSWQDKFCPGLGSYEYGDGTAVTVNS V domain 2: ARVDQTPRSVTKETGESLTINCVLRDASYALGSTCWYRKKSGSTNEESISKGGRYVETVNSGSKSFSLRINDLTVEDGGTYRCGVGRGLGVGCDYPLCSYSYAACGDGTAVTVNS	–	0.065	0.763	–	0.104	–	–
ShAb06H02K (ShAb06Hole-02Knob) (bispecific antibody, V domains shown) V domain 1: ARVDQTPRSVTKETGESLTINCVLRDASYALGSTCWYRKKSGSTNEESISKGGRYVETVNSGSKSFSLRINDLTVEDGGTYRCGVGRGLGVGCDYPLCSYSYAACGDGTAVTVNS V domain 2: ARVDQTPQTITKETGESLTINCVLRDSNCALASTDWYRKKSGSTNEESISKGGRYVETVNSGSKSFSLRINDLTVEDSGTYRCNAWDSWETRQLKCDYDVYGGGTVVTVNS	–	0.03	0.206	–	0.0746	0.0085	114000
ShAb01-Foldon (ShAb01 VNAR-KESlinker-Foldon-3c-His8-Strep) (VNAR) VNAR: ARVDQTPRSVTKETGESLTINCVLRDSNCALSSTHWYRKKSGSTNEERILQGRRYVETVNSGSKSFSLRINDLRVEDSGTYRCKVYWGNSWQDKFCPGLGSYEYGDGTAVTVNK	–	0.309	0.488	0.31	–	–	–
